Experimental data: US20210379147A1, “METHOD AND SYSTEM FOR TREATING CANCER UTILIZING TINAGL1” (The Trustees of Princeton University, priority 2018, published 2021)

Tests used:
[1] = tested on: orthotopically implanted mammary tumors; test: r-Tinagl1 treatment of orthotopically implanted mammary tumors; assay type: in vivo, mice; settings: continuous treatment of r-Tinagl1 for 7 weeks
Source text: To test if recombinant Tinagl1 protein (r-Tiangl1) treatment would slow tumor progression, full length recombinant human Tinagl1 with 6×His tag at the C-terminus (r-Tinagl1) was expressed in HEK293T cells and r-Tinagl1 was purified from the culture media using Ni^2+-NTA purification system. r-Tinagl1 was used to treat orthotopically implanted mammary tumors.
For xenograft studies, 8-weeks immunocompromised NOD Scid Gamma (NSG) or immunocompetent FVB females were used. Cells were suspended in 10 μl of PBS for mammary gland injection (MFP), or were suspended in 100 μl of PBS for intravenous injection. For human patient-derived xenograft (PDX, HCL001, kindly provided by Dr. Alana Welm) study, we followed the standard protocol for PDX transplantation, maintenance and digestion of the tumors (DeRose et al., 2011). 2×10^4 cells were suspended in 10 μl of PBS and subjected to MFP injection. […] Primary tumors were quantified once per week via caliper measurement. All cell lines used for lung metastasis experiments were stably labeled with a firefly luciferase expressing vector and were monitored by weekly bioluminescent imaging (BLI). At protocol-defined endpoints, lungs were dissected and fixed in bouin's solution and the metastatic lesions were counted.

Tinagl1-EGFR interaction = target: T1, Tinagl1-EGFR interaction (Homo sapiens, UniProt P00533); test: Competition IP for Tinagl1-HA / GFP-EGFR interaction in HEK293T lysate; assay type: binding
T1 construct: host or cells: HEK293T
Description: FIG. 13C is an image of IP and WB assays where HEK293T cells co-expressing Tinagl1-HA and GFP-EGFR were lysed and divided into multiple groups, then PBS or indicated amount of proteins was added into each group, then IP followed by WB assays were performed.
FIG. 13D is a graph quantifying the ability of the indicated protein to compete with Tinagl1-EGFR interaction, by measuring GFP-EGFR level in the groups from FIG. 13C.
Whether Tinagl1 inhibits EGFR activation in a similar manner was tested. […] Whether Tinagl1 and EGF compete with each other to interact with EGFR was tested.

[2] = tested on: primary tumors and lung lesions; test: IHC staining of primary tumors and lung samples for proliferation and apoptosis markers; assay type: in vivo, mice; settings: versus PBS
Source text: FIGS. 7A-7D are graphs indicating the percentage of Ki67^+ (FIGS. 7A and 7B) and cleaved caspase-3^+ (FIGS. 7C, 7D) cells counted in primary tumor (FIGS. 7A, 7C) and spontaneous lung metastasis (FIGS. 7B, 7D) samples from mice treated with r-Tinagl1(711, 721, 731, 741) or PBS (710, 720, 730, 740) collected for H&E and IHC staining with indicated antibodies.
To address how Tinagl1 inhibits primary tumor growth and metastasis, primary tumors and corresponding lung samples were stained for proliferation and apoptosis markers. […] Consistent results were also observed in the staining of the tissues collected from the mice injected with the SUM159-M1a cells.
TIC staining was performed as previously described (Wan et al., 2014). Briefly, Paraffin-embedded primary tumor or lung samples were sliced into 4 μm thickness. The slides were baked overnight at 60° C. Next, the tissue slides were washed with PBS after deparaffinization and hydration and then boiled in citrate buffer at 100° C. for 40 min. After treated with 3% H2O2 for 30 min to block endogenous peroxidase, slides were incubated at 4° C. overnight with Ki67 (Leica Biosystem, Ki67-MM1-L-CE-S), cleaved caspase-3 (Cell signaling, 9661S), p-EGFR (Cell signaling, 3777), p-FAK (Cell signaling, 8556), CD31 (Cell signaling, 77699), -SMA (Sigma, A5228), or Tinagl1 (Sigma, HPA048695) antibodies. […]

FAK = test: FN- or EGF-dependent FAK phosphorylation (WB); assay type: cell-based; settings: tested at 10, 100, 1000 and 10,000 ng/mL
Source text: For WB analysis, cells were collected and lysed with IP lysis buffer described above. After boiled with SDS laemmli buffer, the samples were resolved with SDS-PAGE gel and immunoblotted with standard protocols.
FN is the major ligand for integrin α5β1 and αvβ1, and triggers integrin/FAK signal pathway after binding. FN was employed to evaluate the effects of Tinagl1 on the integrin/FAK pathway. […] Likewise, the activation of FAK by FN was attenuated in the cells overexpressing Tinagl1.

[3] = tested on: primary tumors and lung metastases; test: IHC staining of tumor samples from treatment groups (Ki67, Casp3, CD31, α-SMA); assay type: in vivo, NSG female mice
Description: FIGS. 17F-17I are graphs quantifying positives cells per field where primary tumors were collected from indicated treatment groups from FIG. 17D and then subjected to IHC staining with indicated antibodies, including % Ki67^+ (17F), % Casp3^+ (17G), % CD31^+ (17H), and % α-SMA^+ (17I).
TIC staining was performed as previously described (Wan et al., 2014). Briefly, Paraffin-embedded primary tumor or lung samples were sliced into 4 μm thickness. The slides were baked overnight at 60° C. Next, the tissue slides were washed with PBS after deparaffinization and hydration and then boiled in citrate buffer at 100° C. for 40 min. After treated with 3% H2O2 for 30 min to block endogenous peroxidase, slides were incubated at 4° C. overnight with Ki67 (Leica Biosystem, Ki67-MM1-L-CE-S), cleaved caspase-3 (Cell signaling, 9661S), p-EGFR (Cell signaling, 3777), p-FAK (Cell signaling, 8556), CD31 (Cell signaling, 77699), -SMA (Sigma, A5228), or Tinagl1 (Sigma, HPA048695) antibodies. Following washes with PBS, slides were then incubated with HRP-conjugated goat anti-rabbit or mouse secondary antibody (Genetech) for 30 min at room temperature. Sections were stained by DAB and then counterstained with Gill hematoxylin according to manufacturer's instructions.

EGFR dimerization = target: T2, EGFR dimerization (Homo sapiens, UniProt P00533); test: EGFR dimerization in LM2 cells (co-IP of EGFR-GFP/EGFR-Myc; DSS cross-linking); assay type: cell-based; settings: 1 μg/ml r-Tinagl1 1 hr
T2 construct: host or cells: LM2
Description: FIG. 14A is an image of WB analyses where LM2 cells were transfected with plasmids to overexpress GFP-EGFR and EGFR-Myc. 48 hr after transfection, the cells were treated with or without 1 μg/ml of r-Tinagl1 for 1 hr, followed by 10 min of 1 ng/ml EGF treatment, then collected and immunoprecipitated with either IgG or anti-Myc antibody, after which the IP samples were subjected to WB analysis.
FIG. 14B is a graph illustrating the quantified amount of EGFR-GFP that interacts with EGFR-Myc, normalized to PBS treatment group.
FIG. 14C is an image of WB analyses where LM2 cells stably expressed EGFR-Myc were pretreated with PBS or 1 μg/ml of r-Tinagl1 for 1 hr, treated with 1 ng/ml of EGF for another 10 min, then cells were collected and the dimers were cross-linked with disuccinimidyl suberate (DSS) treatment, followed by WB analysis.
FIG. 14D is a graph illustrating the ratio of dimerized EGFR in each treatment group that was quantified.
Whether Tinagl1 prevents EGFR dimerization independent of interfering with EGF binding to EGFR was tested. […] To further validate this conclusion, LM2 cells with EGFR-Myc stably expressed were treated with EGF or r-Tinagl1 alone or combination. […]
The assay was performed as previously described (Wang et al., 2015). […] Finally, the cells were then lysed with IP lysis buffer for 20 min on ice, and EGFR dimerization was analyzed by WB.

B1: r-Tinagl1: full length recombinant human Tinagl1 with 6×His tag at the C-terminus [SEQ ID NO.: 24], expressed in HEK293T cells (protein, listed as Homo sapiens)
chain: MWRCPLGLLLLLPLAGHLALGAQQGRGRRELAPGLHLRGIRDAGGRYCQEQDLCCRGRADDCALPYLGAICYCDLFCNRTVSDCCPDFWDFCLGVPPPFPPIQGCMHGGRIYPVLGTYWDNCNRCTCQENRQWQCDQEPCLVDPDMIKAINQGNYGWQAGNHSAFWGMTLDEGIRYRLGTIRPSSSVMNMHEIYTVLNPGEVLPTAFEASEKWPNLIHEPLDQGNCAGSWAFSTAAVASDRVSIHSLGHMTPVLSPQNLLSCDTHQQQGCRGGRLDGAWWFLRRRGVVSDHCYPFSGRERDEAGPAPPCMMHSRAMGRGKRQATAHCPNSYVNNNDIYQVTPVYRLGSNDKEIMKELMENGPVQALMEVHEDFFLYKGGIYSHTPVSLGRPERYRRHGTHSVKITGWGEETLPDGRTLKYWTAANSWGPAWGERGHFRIVRGVNECDIESFVLGVWGRVGMEDMGHHVDHHHHHH
modifications: C-terminal 6xHis tag
primary tumor growth [1]: significantly inhibited
spontaneous lung metastasis [1]: significantly inhibited
competition with Tinagl1-HA to interact with EGFR (Tinagl1-EGFR interaction): competed
Ki67+ cells [2]: significantly fewer
cleaved caspase-3+ apoptotic cells [2]: no difference
FN-dependent activation of FAK signaling (FAK phosphorylation at Tyr397) (FAK): significantly reduced FN-dependent activation of FAK signaling
CD31+ endothelium ([3]; primary and lung metastasis): significantly reduced
tumor cell proliferation (Ki67 staining) ([3]; primary tumor and lung metastatic nodules): strong anti-proliferative effects on both primary tumors and lung metastases
amount of EGFR-GFP bound by EGFR-Myc (EGFR dimerization; in the presence of EGF): significantly reduced the amount of EGFR-GFP bound by EGFR-Myc
dimer form of EGFR (DSS cross-linking) (EGFR dimerization; then EGF): reduced
